Data set [1] concerns the target egl-13 (T22B7.1) (Caenorhabditis elegans) (UniProt Q23045).
The target of data set [2] is T1, daf-19 (F33H1.1) (Caenorhabditis elegans) (UniProt Q09555).
T1 sequence: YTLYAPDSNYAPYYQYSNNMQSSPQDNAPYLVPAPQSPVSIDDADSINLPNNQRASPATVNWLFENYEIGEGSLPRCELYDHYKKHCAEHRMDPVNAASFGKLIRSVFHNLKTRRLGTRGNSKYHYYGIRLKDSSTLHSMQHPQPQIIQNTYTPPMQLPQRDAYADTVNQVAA

Data set [3] has as its target T2, elt-6 (F52C12.5) (Caenorhabditis elegans) (UniProt G5EGN3).
T2 sequence: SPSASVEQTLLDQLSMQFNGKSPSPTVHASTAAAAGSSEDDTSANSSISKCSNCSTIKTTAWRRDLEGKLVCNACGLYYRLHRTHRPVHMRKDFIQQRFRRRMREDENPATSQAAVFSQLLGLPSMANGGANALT

The target of data set [4] is T3, elt-7 (C18G1.2) (Caenorhabditis elegans) (UniProt O61924).
T3 sequence: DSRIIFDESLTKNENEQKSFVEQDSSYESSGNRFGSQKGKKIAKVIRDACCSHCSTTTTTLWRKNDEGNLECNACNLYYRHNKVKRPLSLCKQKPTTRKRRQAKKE

The target in data set [5] is T4, tbx-33 (Y66A7A.8) (Caenorhabditis elegans) (UniProt O45291).
T4 sequence: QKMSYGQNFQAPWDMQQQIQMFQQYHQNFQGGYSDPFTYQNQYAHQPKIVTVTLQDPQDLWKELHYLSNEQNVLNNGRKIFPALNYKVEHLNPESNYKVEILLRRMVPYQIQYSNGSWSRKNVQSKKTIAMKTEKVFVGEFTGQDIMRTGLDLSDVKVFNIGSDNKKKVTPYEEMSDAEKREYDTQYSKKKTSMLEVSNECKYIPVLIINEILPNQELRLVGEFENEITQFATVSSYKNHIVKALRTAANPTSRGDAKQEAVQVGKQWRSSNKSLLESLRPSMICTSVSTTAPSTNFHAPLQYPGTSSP

Chain of egl-13 (T22B7.1) (Caenorhabditis elegans) (Q23045 279-447): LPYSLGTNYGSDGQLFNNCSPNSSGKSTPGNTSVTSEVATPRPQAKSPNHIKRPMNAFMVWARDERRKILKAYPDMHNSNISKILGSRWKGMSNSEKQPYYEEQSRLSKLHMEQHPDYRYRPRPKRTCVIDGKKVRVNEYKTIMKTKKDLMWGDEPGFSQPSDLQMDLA

The sequence “GAACAATA (double strand) [8-mer GAACAATA]” displayed a binding signal (PBM E-score (-0.5 to 0.5)) in data set [1] of 0.478. Same read-out and setting: the figure for “AAACAATA (double strand) [8-mer AAACAATA]” is 0.469. Take “GTTGCTAA (double strand) [8-mer GTTGCTAA]”: in data set [2], the binding signal (PBM E-score (-0.5 to 0.5)) was found to be 0.487. Still for that read-out and setting: the figure for “GTAACTAA (double strand) [8-mer GTAACTAA]” is 0.465. Regarding “AACAATAG (double strand) [8-mer AACAATAG]”, the binding signal (PBM E-score (-0.5 to 0.5)) in data set [1] was determined as 0.485. On the same count and under the same terms, the figure for “AACAATAC (double strand) [8-mer AACAATAC]” is 0.453. “TAGCAACA (double strand) [8-mer TAGCAACA]” showed a binding signal (PBM E-score (-0.5 to 0.5)) in data set [2] of 0.474.

Take “ACTGATAA (double strand) [8-mer ACTGATAA]”: the binding signal (PBM E-score (-0.5 to 0.5)) in data set [3] was 0.496; in data set [4] it was 0.476. In turn, “CGTTGCTA (double strand) [8-mer CGTTGCTA]” returned a binding signal (PBM E-score (-0.5 to 0.5)) in data set [2] of 0.489. Regarding “ATCTCCAG (double strand) [8-mer ATCTCCAG]”, the binding signal (PBM E-score (-0.5 to 0.5)) in data set [5] was 0.474.

As for “CTAGCAAC (double strand) [8-mer CTAGCAAC]”, in data set [2], the binding signal (PBM E-score (-0.5 to 0.5)) amounted to 0.484. In turn, “AGAACAAT (double strand) [8-mer AGAACAAT]” registered a binding signal (PBM E-score (-0.5 to 0.5)) in data set [1] of 0.469. Same read-out and setting: the same measure for “ACAACAAT (double strand) [8-mer ACAACAAT]”: 0.455. In data set [5], “ATCGTCAC (double strand) [8-mer ATCGTCAC]” showed a binding signal (PBM E-score (-0.5 to 0.5)) of 0.487. For the sequence “ATAACAAT (double strand) [8-mer ATAACAAT]”, the binding signal (PBM E-score (-0.5 to 0.5)) in data set [1] amounted to 0.471.

On to “ATAGCAAC (double strand) [8-mer ATAGCAAC]”, for which the binding signal (PBM E-score (-0.5 to 0.5)) in data set [2] is 0.489.

The sequence “ATCGCCAG (double strand) [8-mer ATCGCCAG]” returned a binding signal (PBM E-score (-0.5 to 0.5)) in data set [5] of 0.473. Consider “CGTTATCA (double strand) [8-mer CGTTATCA]”, for which the figures for the binding signal (PBM E-score (-0.5 to 0.5)) in data set [3] and in data set [4] were 0.493 and 0.478, respectively. “ATGGCAAC (double strand) [8-mer ATGGCAAC]” registered a binding signal (PBM E-score (-0.5 to 0.5)) in data set [2] of 0.468. With “CCTTATCA (double strand) [8-mer CCTTATCA]”, the binding signal (PBM E-score (-0.5 to 0.5)) in data set [3] was 0.496; in data set [4], 0.469.

For the sequence “TGATAACA (double strand) [8-mer TGATAACA]”, the values for the binding signal (PBM E-score (-0.5 to 0.5)) in data set [3] and in data set [4] were 0.492 and 0.458, respectively. Sequence “AACAATAA (double strand) [8-mer AACAATAA]” gave a binding signal (PBM E-score (-0.5 to 0.5)) in data set [1] of 0.462. Sequence “ATCACCAC (double strand) [8-mer ATCACCAC]” yielded a binding signal (PBM E-score (-0.5 to 0.5)) in data set [5] of 0.459. On the same count and under the same terms, the figure for “ATCGCCAC (double strand) [8-mer ATCGCCAC]” is 0.49. In data set [1], “TAACAATA (double strand) [8-mer TAACAATA]” had a binding signal (PBM E-score (-0.5 to 0.5)) of 0.464. In turn, “GTAGCAAC (double strand) [8-mer GTAGCAAC]” yielded a binding signal (PBM E-score (-0.5 to 0.5)) in data set [2] of 0.46. The sequence “GGTTGCTA (double strand) [8-mer GGTTGCTA]” showed a binding signal (PBM E-score (-0.5 to 0.5)) in data set [2] of 0.493. The sequence “ATCTTCAC (double strand) [8-mer ATCTTCAC]” showed a binding signal (PBM E-score (-0.5 to 0.5)) in data set [5] of 0.488.

“ATGATAAG (double strand) [8-mer ATGATAAG]”: the binding signal (PBM E-score (-0.5 to 0.5)) in data set [3] came to 0.491; in data set [4], 0.457. On to “CTGATAAC (double strand) [8-mer CTGATAAC]”, for which the binding signal (PBM E-score (-0.5 to 0.5)) in data set [3] was determined as 0.493; in data set [4], 0.467. On the same counts, the results for “GCTGATAA (double strand) [8-mer GCTGATAA]” are 0.493 and 0.471. On the same counts, the results for “CTGATAAG (double strand) [8-mer CTGATAAG]” are 0.496 and 0.472.

(Values after paper PMC4434323.)
